These results are taken from patent publication US20250060376A1 (PLASMARKER BIOTECHNOLOGY, published 2025).

The assay deals with T1, GluA1 (mouse (hippocampus of DIR-KI mice), UniProt P23818 19-907, limits assumed).
T1 construct: Endogenous protein in tissue sections (PLA assay)
The experiment in a line: PLA assay in hippocampus (FIG. 20E).

T1 sequence (P23818 19-907 limits assumed): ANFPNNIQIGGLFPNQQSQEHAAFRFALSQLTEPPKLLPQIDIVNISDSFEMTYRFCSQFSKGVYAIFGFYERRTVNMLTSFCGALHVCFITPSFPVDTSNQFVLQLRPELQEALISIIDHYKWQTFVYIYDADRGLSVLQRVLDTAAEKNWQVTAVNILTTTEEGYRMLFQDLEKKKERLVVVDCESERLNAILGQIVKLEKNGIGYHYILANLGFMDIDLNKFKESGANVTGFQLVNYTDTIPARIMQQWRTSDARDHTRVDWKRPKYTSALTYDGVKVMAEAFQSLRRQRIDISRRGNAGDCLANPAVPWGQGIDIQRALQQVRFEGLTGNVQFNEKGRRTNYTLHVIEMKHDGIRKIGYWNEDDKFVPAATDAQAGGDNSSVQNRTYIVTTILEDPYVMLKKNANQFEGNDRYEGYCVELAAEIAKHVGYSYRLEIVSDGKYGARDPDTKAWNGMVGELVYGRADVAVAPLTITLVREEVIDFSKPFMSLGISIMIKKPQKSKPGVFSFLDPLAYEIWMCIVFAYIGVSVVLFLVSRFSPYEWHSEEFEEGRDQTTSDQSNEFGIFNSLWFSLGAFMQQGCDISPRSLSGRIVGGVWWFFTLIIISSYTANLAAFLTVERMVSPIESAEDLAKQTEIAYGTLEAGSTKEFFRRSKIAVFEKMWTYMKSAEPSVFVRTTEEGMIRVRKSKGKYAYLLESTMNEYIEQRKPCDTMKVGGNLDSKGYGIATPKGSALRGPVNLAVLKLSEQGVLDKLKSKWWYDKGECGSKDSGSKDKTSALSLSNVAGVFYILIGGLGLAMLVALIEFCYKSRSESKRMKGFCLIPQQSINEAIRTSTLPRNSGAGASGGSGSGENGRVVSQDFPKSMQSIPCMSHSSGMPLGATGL

B1: DNA damage-inducible transcript 4-like (DDIT4L) intron retention spliced product (DIR) protein (other)
chain: MVATGSLSSKNPASISELLDCGYHPESLLSGECPRCPPFSPPKVGASGSIGWAGFRLPPLPLCRRCHKIHLRRLLSKFSNIFSP
notes: 84 aa spliced product peptide; also called QDLIR; human DIR
As to B1, the binding result is “binds”.
